In general, stoichiometry N refers to the number of molecules, sites or subunits per partner or assembly.

This assay addresses T1, SARS-CoV M protein (SARS-CoV), P59596.
T1 chain: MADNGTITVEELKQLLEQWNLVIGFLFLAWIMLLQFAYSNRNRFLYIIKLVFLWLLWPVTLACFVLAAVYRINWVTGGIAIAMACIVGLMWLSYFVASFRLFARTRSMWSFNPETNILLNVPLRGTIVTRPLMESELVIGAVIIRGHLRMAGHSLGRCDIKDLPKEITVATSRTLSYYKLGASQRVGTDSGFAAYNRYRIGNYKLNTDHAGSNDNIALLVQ
In words: cryo-EM structure. The conditions noted are these: remark: other sources report otherwise.

B1: SARS-CoV M protein, P59596 1-221 (natural protein)
chain: MADNGTITVEELKQLLEQWNLVIGFLFLAWIMLLQFAYSNRNRFLYIIKLVFLWLLWPVTLACFVLAAVYRINWVTGGIAIAMACIVGLMWLSYFVASFRLFARTRSMWSFNPETNILLNVPLRGTIVTRPLMESELVIGAVIIRGHLRMAGHSLGRCDIKDLPKEITVATSRTLSYYKLGASQRVGTDSGFAAYNRYRIGNYKLNTDHAGSNDNIALLVQ
With B1, the stoichiometry N was found to be 2.

These data come from paper PMC12644734.
